Test results: patent US20230357429A1 (JANUX THERAPEUTICS, published 2023)
Where a chain is given by its changes, count along the chain named. Names may count otherwise. Where no end group is shown, it is not given here.

T1: Human TROP2 Full length (human, UniProt P09758 31-323)
T1 sequence: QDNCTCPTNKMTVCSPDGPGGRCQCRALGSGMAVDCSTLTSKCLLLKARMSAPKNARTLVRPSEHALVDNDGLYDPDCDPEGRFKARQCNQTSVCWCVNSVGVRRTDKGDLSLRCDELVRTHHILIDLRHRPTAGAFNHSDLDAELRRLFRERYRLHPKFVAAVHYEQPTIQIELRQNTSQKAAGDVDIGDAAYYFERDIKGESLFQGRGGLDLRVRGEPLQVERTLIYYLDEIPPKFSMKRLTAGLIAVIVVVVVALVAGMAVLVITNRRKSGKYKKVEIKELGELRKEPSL

T2: Cyno TROP2 Full length (cynomolgus monkey, UniProt P09758 31-323 (human entry))
T2 chain: T1 sequence with M32V, S63N, I200V, M262V, T268S

T3: Human TROP2 ECD (31-274 AA) (human, UniProt P09758 31-274, biotinylated)
T3 construct: also called biotinylated TROP2; TROP2-biotin
T3 sequence: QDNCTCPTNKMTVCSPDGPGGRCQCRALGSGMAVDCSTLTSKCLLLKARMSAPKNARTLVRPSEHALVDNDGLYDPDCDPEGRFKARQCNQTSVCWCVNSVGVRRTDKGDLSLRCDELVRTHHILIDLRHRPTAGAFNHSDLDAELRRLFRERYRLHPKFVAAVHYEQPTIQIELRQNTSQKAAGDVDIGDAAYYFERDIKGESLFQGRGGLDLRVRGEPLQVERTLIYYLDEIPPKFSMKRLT

B1: PC-43 (bispecific antibody)
light: GGVDFCALYHWPICYQGGGGSGGLSGRSDAGSPLGLAGSGGSDIQLTQSPSSLSASVGDRVSITCKASQDVSIAVAWYQQKPGKAPKLLIYSASYRYTGVPDRFSGSGSGTDFTLTISSLQPEDFAVYYCQQHYITPLTFGAGTKVEIKRTVAAPSVFIFPPSDEQLKSGTASVVCLLNNFYPREAKVQWKVDNALQSGNSQESVTEQDSKDSTYSLSSTLTLSKADYEKHKVYACEVTHQGLSSPVTKSFNRGEC
heavy: EVQLVESGGGLVQPGGSLRLSCAASGSTFYTAVMGWVRQAPGKGLEWVAAIRWTALTTSYADSVKGRFTISRDGAKTTLYLQMNSLRPEDTAVYYCAARGTLGLFTTADSYDYWGQGTLVTVSSGGGGSGGGSGGGSACLGPEWEVCPYGGGGSGGGLSGRSDAGSPLGLAGSGGGSEVQLVESGGGLVQPGGSLKLSCAASGFTFNKYAMNWVRQASGKGLEWVGRIRSKYNNYATYYADSVKDRFTISRDDSKNTAYLQMNSLKTEDTAVYYCVRHGNFGNSYISYWAYWGQGTLVTVSSGGGGSGGGGSGGGGSQTVVTQEPSFSVSPGGTVTLTCRSSTGAVTSGNYANWVQQTPGQAPRGLIGGTKFLAPGVPDRFSGSILGNKAALTITGAQADDESDYYCVLWYSNRWVFGGGTKLTVLGGGGSQVQLQQSGSELKKPGASVKVSCKASGYTFTNYGMNWVKQAPGQGLKWMGWINTYTGEPTYTDDFKGRFAFSLDTSVSTAYLQISSLKADDTAVYFCARGGFGSSYWYADVWGQGSLVTVSSASTKGPSVFPLAPSSKSTSGGTAALGCLVKDYFPEPVTVSWNSGALTSGVHTFPAVLQSSGLYSLSSVVTVPSSSLGTQTYICNVNHKPSNTKVDKKVEPKSC
notes: Masked polypeptide complex: anti-TROP2 F108A, anti-CD3 with P41S, A49G, N87S ; E227D

Columns and labels:
Human TROP2 Full length = molecular target: T1, Human TROP2 Full length; assay: cell-based or functional assay
Cyno TROP2 Full length = molecular target: T2, Cyno TROP2 Full length; assay: cell-based or functional assay
CD3 = molecular target: T4, CD3 (human, UniProt P07766 23-126, limits assumed, biotinylated); assay: ELISA; biotinylated CD3 on neutravidin plates, PC titrated, HRP secondary
T4 construct: also called biotinylated CD3; CD3-biotin

[1] = molecular target: T3, Human TROP2 ECD (31-274 AA); assay: ELISA; biotinylated TROP2 on neutravidin plates, PC titrated, HRP secondary
TBD-1 wt = molecular target: T5, TBD-1 wt; assay: competition ELISA, peptide vs Fab binding to captured biotin-TROP2
T5 construct: Fab; the heavy chain entry is VH-CH1; also called wild-type anti-TROP2 Fab (hRS7); TROP2 Fab

TBD-6 (LC I93A) [2] = molecular target: T6, TBD-6 (LC I93A); assay: as above
T6 construct: Fab; also called LC I93A mutant

TBD-11 (HC R98A) [3] = molecular target: T7, TBD-11 (HC R98A); assay: as above
T7 construct: Fab; also called HC R98A mutant

TBD-17 (HC S104A) [4] = molecular target: T8, TBD-17 (HC S104A); assay: as above
T8 construct: Fab; also called HC S104A mutant

TBD-21 (HC F108A) [5] = molecular target: T9, TBD-21 (HC F108A); assay: as above
T9 construct: Fab; also called HC F108A mutant

TBD-22 (HC D109A) [6] = molecular target: T10, TBD-22 (HC D109A); assay: as above
T10 construct: Fab; also called HC D109A mutant

TBD-6 (LC I93A) [7] = molecular target: T11, TBD-6 (LC I93A); assay: competition ELISA, Fab on captured TROP2
T11 construct: anti-TROP2 Fab, CDR3 LC alanine mutant

TBD-11 (HC R98A) [8] = molecular target: T12, TBD-11 (HC R98A); assay: competition ELISA, Fab on captured TROP2
T12 construct: anti-TROP2 Fab, CDR3 HC alanine mutant

TBD-17 (HC S104A) [9] = molecular target: T13, TBD-17 (HC S104A); assay: competition ELISA, Fab on captured TROP2
T13 construct: anti-TROP2 Fab, CDR3 HC alanine mutant

TBD-21 (HC F108A) [10] = molecular target: T14, TBD-21 (HC F108A); assay: competition ELISA, Fab on captured TROP2
T14 construct: anti-TROP2 Fab, CDR3 HC alanine mutant

TBD-22 (HC D109A) [11] = molecular target: T15, TBD-22 (HC D109A); assay: competition ELISA, Fab on captured TROP2
T15 construct: anti-TROP2 Fab, CDR3 HC alanine mutant

[12] = molecular target: T16, TBD-1 wt (anti-TROP2 Fab, hRS7); assay: competition ELISA, Fab on captured TROP2
T16 construct: non-mutated Fab

Row | Binder | H292 Cytotoxicity EC50 (pM) (Human TROP2 Full length) | CyTROP2 HEK293 EC50 (pM) (Cyno TROP2 Full length) | EC50 (CD3) [µM] | EC50 [1] [µM] | IC50 (TBD-1 wt) [µM] | IC50 (TBD-6 (LC I93A) [2]) [µM] | IC50 (TBD-11 (HC R98A) [3]) [µM] | IC50 (TBD-17 (HC S104A) [4]) [µM] | IC50 (TBD-21 (HC F108A) [5]) [µM] | IC50 (TBD-22 (HC D109A) [6]) [µM] | IC50 (TBD-6 (LC I93A) [7]) [µM] | IC50 (TBD-11 (HC R98A) [8]) [µM] | IC50 (TBD-17 (HC S104A) [9]) [µM] | IC50 (TBD-21 (HC F108A) [10]) [µM] | IC50 (TBD-22 (HC D109A) [11]) [µM] | IC50 [12] [µM]
1 | B1 | 12700 | 1220 | 0.0607 | 0.587 |  |  |  |  |  |  |  |  |  |  |  | 
2 | IDFCAMYQWPICDT (cysteine pairing not given here; also: biotinylated (site not given here)) [Peptide-1] |  |  |  |  | 0.78 | 0.35 | 2.49 | 1.02 | 2.89 | 0.07 |  |  |  |  |  | 
3 | IDFCAVYKWPVCQV (cysteine pairing not given here; also: biotinylated (site not given here)) [Peptide-2] |  |  |  |  | 2.23 | 1.1 | 5.85 | 2.08 | 5.88 | 0.16 |  |  |  |  |  | 
4 | VDFCKIYAWPICGS (cysteine pairing not given here; also: biotinylated, site not given here) [Peptide-4] |  |  |  |  | 0.46 | 0.4 | 3.24 | 2.04 | 3.3 | 0.13 |  |  |  |  |  | 
5 | IDFCLIYNWPVCDT (cysteine pairing not given here; also: biotinylated, site not given here) [Peptide-6] |  |  |  |  |  | 1.86 | 8.84 | 3.09 | 7.94 | 0.09 |  |  |  |  |  | 
6 | VDFCGLYHWPICYQ (mask peptide for the TROP2 Fab) [Peptide-8] |  |  |  |  |  |  |  |  |  |  | 0.76 | 0.94 | 1.25 | 2.12 | 0.1 | 
7 | VDFCALYHWPICYQ (mask peptide for the TROP2 Fab) [Peptide-43] |  |  |  |  |  |  |  |  |  |  | 0.48 | 0.87 | 0.51 | 1.04 | 0.05 | 0.27
8 | VEFCAIYSWPICKI (mask peptide for the TROP2 Fab) [Peptide-46] |  |  |  |  |  |  |  |  |  |  | 5.18 | 22.3 | 11.5 | 25.9 | 0.7 | 5.14
9 | VDFCAIYSWPICKI (mask peptide for the TROP2 Fab) [Peptide-50] |  |  |  |  |  |  |  |  |  |  | 0.92 | 1.97 | 1.54 | 3.7 | 0.02 | 0.56
10 | VDFCYMYKWPVCYP (mask peptide for the TROP2 Fab) [Peptide-48] |  |  |  |  |  |  |  |  |  |  | 6.26 | 31.3 | 8.86 | 75.2 | 0.31 | 10
11 | IDFCLLYKWPVCEL (mask peptide for the TROP2 Fab) [Peptide-49] |  |  |  |  |  |  |  |  |  |  | 2.25 | 6.37 | 2.53 | 8.67 | 0.07 | 3.73
12 | VDFCGLYHWPICYQV (mask peptide for the TROP2 Fab) [Peptide-51] |  |  |  |  |  |  |  |  |  |  | 0.42 | 0.62 | 0.55 | 1.27 | 0.01 | 0.18
13 | IDFCRVYDWPVCSL (mask peptide for the TROP2 Fab) [Peptide-53] |  |  |  |  |  |  |  |  |  |  | 4.51 | 16.1 | 7.56 | 22.7 | 0.59 | 8.93
14 | VDFCYRYSWPVCWA (mask peptide for the TROP2 Fab) [Peptide-54] |  |  |  |  |  |  |  |  |  |  | 23.4 |  | 29.9 | 161 | 3.62 | 27.1
15 | VDFCYKYNWPICSR (mask peptide for the TROP2 Fab) [Peptide-55] |  |  |  |  |  |  |  |  |  |  | 3.12 | 14 | 7.21 | 16.8 | 0.33 | 4.39
16 | VDFCYQYGWPICSRV (mask peptide for the TROP2 Fab) [Peptide-56] |  |  |  |  |  |  |  |  |  |  | 5.62 | 21 | 24.1 | 106 | 3.03 | 10.1
17 | IDFCYRYGWPVCQT (mask peptide for the TROP2 Fab) [Peptide-57] |  |  |  |  |  |  |  |  |  |  | 12.7 |  | 17.3 | 88.1 | 1.91 | 16.7
18 | VDFCALYNWPVCAI (mask peptide for the TROP2 Fab) [Peptide-59] |  |  |  |  |  |  |  |  |  |  | 1.94 | 7.55 | 3.49 | 9.64 | 0.1 | 3.49
19 | VDFCNLYHWPICAI (mask peptide for the TROP2 Fab) [Peptide-60] |  |  |  |  |  |  |  |  |  |  | 0.67 | 2.56 | 2.09 | 5.45 | 0.16 | 0.47
20 | VDFCALYHWPVCGL (mask peptide for the TROP2 Fab) [Peptide-61] |  |  |  |  |  |  |  |  |  |  | 1.19 | 12.2 | 1.83 | 7.75 | 0.26 | 1.83
